Measurements from EP2078531A2.
Values joined by “and” are separate entries in the source; they are usually repeats but may differ in a detail not shown here. Identical values can stand only once.

Molecular target: T1, Human recombinant platelet factor-4 (human) (UniProt P02776)
T1 sequence (looked up): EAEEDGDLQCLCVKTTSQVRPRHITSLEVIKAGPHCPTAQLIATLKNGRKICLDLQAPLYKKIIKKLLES
Assay: PF4-sepharose affinity column, HUVEC conditioned medium

NaCl concentration at elution from the PF4 column: 0.4 M NaCl and 0.5 M NaCl
Substance: LOR-1 (from UniProt Q9Y4K0 26-774) (enzyme)
